Data published in patent US20060015959.

Target: recombinant Tau (Panvera)

B1: full length human transglutaminase II (protein)
chain: MAEELVLERCDLELETNGRDHHTADLCREKLVVRRGQPFWLTLHFEGRNYEASVDSLTFSVVTGPAPSQEAGTKARFPLRDAVEEGDWTATVVDQQDCTLSLQLTTPANAPIGLYRLSLEASTGYQGSSFVLGHFILLFNAWCPADAVYLDSEEERQEYVLTQQGFIYQGSAKFIKNIPWNFGQFEDGILDICLILLDVNPKFLKNAGRDCSRRSSPVYVGRVVSGMVNCNDDQGVLLGRWDNNYGDGVSPMSWIGSVDILRRWKNHGCQRVKYGQCWVFAAVACTVLRCLGIPTRVVTNYNSAHDQNSNLLIEYFRNEFGEIQGDKSEMIWNFHCWVESWMTRPDLQPGYEGWQALDPTPQEKSEGTYCCGPVPVRAIKEGDLSTKYDAPFVFAEVNADVVDWIQQDDGSVHKSINRSLIVGLKISTKSVGRDEREDITHTYKYPEGSSEEREAFTRANHLNKLAEKEETGMAMRIRVGQSMNMGSDFDVFAHITNNTAEEYVCRLLLCARTVSYNGILGPECGTKYLLNLNLEPFSEKSVPLCILYEKYRDCLTESNLIKVRALLVEPVINSYLLAERDLYLENPEIKIRILGEPKQKRKLVAEVSLQNPLPVALEGCTFTVEGAGLTEEQKTVEIPDPVEAGEEVKVRMDLLPLHMGLHKLVVNFESDKLKAVKGFRNVIIGPA
B1 was tested, and the “tau aggregation (high molecular weight total tau immunoreactive protein complex on western blot) in the transglutaminase activity assay” value was “increased, Ca2+-dependent tau aggregation when recombinant tau was added to brain lysate from mice with overexpression of hTGII”.
